From patent US20220195023A1

Key:
[1] = target: … (Plasmodium falciparum); assay: SPR, antibody on chip
[2] = target: (NPNA)3 (Plasmodium falciparum); assay: SPR, antibody on chip
[3] = target: (NANP)6 (Plasmodium falciparum); assay: SPR, antibody on chip
[4] = target: (NVDP)3(NANP)2 (Plasmodium falciparum); assay: SPR, antibody on chip
[5] = target: … (Plasmodium falciparum); assay: BLI, target on sensor
[6] = target: (NPNA)3 (Plasmodium falciparum); assay: BLI, target on sensor
[7] = target: (NANP)6 (Plasmodium falciparum); assay: BLI, target on sensor
[8] = target: NANPNVDP (Plasmodium falciparum); assay: BLI, target on sensor
[9] = target: (NVDP)3(NANP)2 (Plasmodium falciparum); assay: BLI, target on sensor

Row | Binder | Kd [1] [nM] | Kd [2] [nM] | Kd [3] [nM] | Kd [4] [nM] | Kd [5] [nM] | Kd [6] [nM] | Kd [7] [nM] | Kd [8] [nM] | Kd [9] [nM]
1 | AB-007029 (antibody, V domains shown) VH: QVQLVESGGGVVQPGRSLRLSCTASGFTFSTYAMHWVRQSPGQGLQWVAVISYHSTNKYYEDSVRGRFTISRDNSKNTLYLQMNSLRAEDTAVYYCARDGYSSSFFDFWGQGTLVTVSS VL: DIQMTQSPSTLSASVGDRVAITCRASQSISRWLAWYQQQPGKAPKLLMSGASVLESGVPSRFSGSGSGTEFTLTISSLQPDDFATYYCQHYNSYFVTFGQGTKVEIK | 26200 | 11.3 | 0.177 | 4790 | 5.62 | 0.166 | 0.803 | 13.2 | 6.67
2 | AB-007070 (antibody, V domains shown) VH: QMQLVESGGGVVQPGRSLRLSCTASGFTFSTYAMHWVRQSPGQGLQWVAVISYHSTNKYYEDSVRGRFTISRDNSKNTLYLQMNSLRAEDTAVYYCARDGYSSSFFDFWGQGTLVTVSS VL: DIQMTQSPSTLSASVGDRVAITCRASQSISRWLAWYQQQPGKAPKLLMSAASVLESGVPSRFSGSGSGTEFTLTISSLQPDDFATYYCQHYNSYFVTFGQGTKVEIK | 65300 | 80.3 | 0.0786 | 11600 | 15.5 | 0.68 | 0.834 | 19.8 | 14.4
3 | AB-007032 (antibody, V domains shown) VH: QVQLVESGGGVVQPGRSLRLSCAASGFTFSTYAMHWVRQAPGQGLQWVAVISYHSTNKYYEDSVRGRFTISRDNSKNTLYLQMNSLRAEDTAVYYCARDGYSSSFFDFWGQGTLVTVSS VL: DIQMTQSPSTLSASVGDRVTITCRASQSISRWLAWYQQQPGKAPKLLISGASVLESGVPSRFSGSGSGTEFTLTISSLQPDDFATYYCQHYNSYFVTFGQGTKVEIK | 4830 | 13.6 | 1.96 | 6540 | 6.42 | 0.169 | 0.338 | 13.9 | 6.68
4 | AB-007074 (antibody, V domains shown) VH: QMQLVESGGGVVQPGRSLRLSCAASGFTFSTYAMHWVRQAPGQGLQWVAVISYHSTNKYYEDSVRGRFTISRDNSKNTLYLQMNSLRAEDTAVYYCARDGYSSSFFDFWGQGTLVTVSS VL: DIQMTQSPSTLSASVGDRVTITCRASQSISRWLAWYQQQPGKAPKLLMSGASVLESGVPSRFSGSGSGTEFTLTISSLQPDDFATYYCQHYNSYYVTFGQGTKVEIK | 12800 | 8.94 | 0.665 | 3920 | 6.05 | 0.206 | 0.601 | 10.2 | 7.96
5 | AB-007030 (antibody, V domains shown) VH: QMQLVESGGGVVQPGRSLRLSCTASGFTFSTYAMHWVRQSPGQGLEWVAVISYHSTNKYYADSVRGRFTISRDNSKNTLYLQMNSLRAEDTAVYYCARDGYSSSFFDFWGQGTLVTVSS VL: DIQMTQSPSTLSASVGDRVAITCRASQSISRWLAWYQQQPGKAPKLLMSGASVLESGVPSRFSGSGSGTEFTLTISSLQPDDFATYYCQHYNSYFVTFGQGTKVEIK | 6520 | 6.88 | 0.0537 | 2570 | 2.84 | 0.192 | 0.526 | 7.92 | 4.03
6 | AB-007071 (antibody, V domains shown) VH: QMQLVESGGGVVQPGRSLRLSCTASGFTFSTYAMHWVRQSPGQGLQWVAVISYHSTNKYYEDSVRGRFTISRDNSKNTLYLQMNSLRAEDTAVYYCARDGYSSSFFDFWGQGTLVTVSS VL: DIQMTQSPSTLSASVGDRVAITCRASQSISRWLAWYQQQPGKAPKLLMSGASSLESGVPSRFSGSGSGTEFTLTISSLQPDDFATYYCQHYNSYFVTFGQGTKVEIK | 23800 | 10.2 | 0.433 | 4870 | 10.4 | 0.694 | 1.66 | 12.9 | 11
7 | AB-007033 (antibody, V domains shown) VH: QMQLVESGGGVVQPGRSLRLSCAASGFTFSTYAMHWVRQAPGQGLEWVAVISYHSTNKYYADSVRGRFTISRDNSKNTLYLQMNSLRAEDTAVYYCARDGYSSSFFDFWGQGTLVTVSS VL: DIQMTQSPSTLSASVGDRVTITCRASQSISRWLAWYQQQPGKAPKLLMSGASVLESGVPSRFSGSGSGTEFTLTISSLQPDDFATYYCQHYNSYFVTFGQGTKVEIK | 2580 | 8.02 | 0.0631 | 2680 | 2.62 | 0.154 | 0.303 | 8.08 | 3.47
8 | AB-007034 (antibody, V domains shown) VH: QVQLVESGGGVVQPGRSLRLSCAASGFTFSTYAMHWVRQAPGQGLEWVAVISYHSTNKYYADSVRGRFTISRDNSKNTLYLQMNSLRAEDTAVYYCARDGYSSSFFDFWGQGTLVTVSS VL: DIQMTQSPSTLSASVGDRVTITCRASQSISRWLAWYQQQPGKAPKLLISGASVLESGVPSRFSGSGSGTEFTLTISSLQPDDFATYYCQHYNSYFVTFGQGTKVEIK | 24100 | 17 | 0.932 | 6710 | 5.44 | 0.00372 | 0.0899 | 11.5 | 6.14
9 | AB-007031 (antibody, V domains shown) VH: QMQLVESGGGVVQPGRSLRLSCTASGFTFSTYAMHWVRQSPGQGLQWVAVISYHSTNKYYEDSVRGRFTISRDNSKNTLYLQMNSLRAEDTAVYYCARDGYSSSFFDFWGQGTLVTVSS VL: DIQMTQSPSTLSASVGDRVAITCRASQSISRWLAWYQQQPGKAPKLLISGASVLESGVPSRFSGSGSGTEFTLTISSLQPDDFATYYCQHYNSYFVTFGQGTKVEIK | 5210 | 8.02 | 0.0384 | 2590 | 2.89 | 0.003 | 0.0569 | 7.02 | 3.5
10 | AB-007072 (antibody, V domains shown) VH: QMQLVESGGGVVQPGRSLRLSCTASGFTFSTYAMHWVRQSPGQGLQWVAVISYHSTNKYYEDSVRGRFTISRDNSKNTLYLQMNSLRAEDTAVYYCARDGYSSSFFDFWGQGTLVTVSS VL: DIQMTQSPSTLSASVGDRVAITCRASQSISRWLAWYQQQPGKAPKLLMSGASNLESGVPSRFSGSGSGTEFTLTISSLQPDDFATYYCQHYNSYFVTFGQGTKVEIK | 38700 | 73.9 | 0.0376 | 13800 | 15.5 | 0.842 | 1.65 | 16.9 | 14.5
11 | AB-007061 (antibody, V domains shown) VH: QMQLVESGGGVVQPGRSLRLSCTASGFTFSTYAMHWVRQSPGQGLQWVAVISYHSTNKYYEDSVRGRFTISRDNSKNTLYLQMNSLRAEDTAVYYCARDGYSSSFFDFWGQGTLVTVSS VL: DIQMTQSPSTLSASVGDRVAITCRASQSIDRWLAWYQQQPGKAPKLLMSGASVLESGVPSRFSGSGSGTEFTLTISSLQPDDFATYYCQHYNSYFVTFGQGTKVEIK | 14600 | 6.69 | 0.0657 | 4000 | 4.11 | 0.00376 | 0.385 | 12.3 | 5.68
12 | AB-007028 (antibody, V domains shown) VH: QMQLVESGGGVVQPGRSLRLSCAASGFTFSTYAMHWVRQAPGQGLQWVAVISYHSTNKYYEDSVRGRFTISRDNSKNTLYLQMNSLRAEDTAVYYCARDGYSSSFFDFWGQGTLVTVSS VL: DIQMTQSPSTLSASVGDRVTITCRASQSISRWLAWYQQQPGKAPKLLMSGASVLESGVPSRFSGSGSGTEFTLTISSLQPDDFATYYCQHYNSYFVTFGQGTKVEIK | 15900 | 5.37 | 0.166 | 2350 | 2.93 | 0.0413 | 0.501 | 9.18 | 4.26
13 | AB-007062 (antibody, V domains shown) VH: QMQLVESGGGVVQPGRSLRLSCTASGFTFSTYAMHWVRQSPGQGLQWVAVISYHSTNKYYEDSVRGRFTISRDNSKNTLYLQMNSLRAEDTAVYYCARDGYSSSFFDFWGQGTLVTVSS VL: DIQMTQSPSTLSASVGDRVAITCRASQSISSWLAWYQQQPGKAPKLLMSGASVLESGVPSRFSGSGSGTEFTLTISSLQPDDFATYYCQHYNSYFVTFGQGTKVEIK | 25000 | 10 | 0.338 | 6250 | 14.3 | 0.00796 | 0.607 | 22.4 | 13.6
14 | AB-007063 (antibody, V domains shown) VH: QMQLVESGGGVVQPGRSLRLSCTASGFTFSTYAMHWVRQSPGQGLQWVAVISYHSTNKYYEDSVRGRFTISRDNSKNTLYLQMNSLRAEDTAVYYCARDGYSSSFFDFWGQGTLVTVSS VL: DIQMTQSPSTLSASVGDRVAITCRASQSISRWLAWYQQQPGKAPKLLMAGASVLESGVPSRFSGSGSGTEFTLTISSLQPDDFATYYCQHYNSYFVTFGQGTKVEIK | 12200 | 14.1 | 0.194 | 3890 | 7.03 | 0.691 | 1.64 | 13.1 | 9.73
15 | AB-007073 (antibody, V domains shown) VH: QMQLVESGGGVVQPGRSLRLSCTASGFTFSTYAMHWVRQSPGQGLQWVAVISYHSTNKYYEDSVRGRFTISRDNSKNTLYLQMNSLRAEDTAVYYCARDGYSSSFFDFWGQGTLVTVSS VL: DIQMTQSPSTLSASVGDRVAITCRASQSISRWLAWYQQQPGKAPKLLMSGASVLESGVPSRFSGSGSGTEFTLTISSLQPDDFATYYCQHYNSHFVTFGQGTKVEIK | 16500 | 72 | 0.871 | 19500 | 17.9 | 0.326 | 0.627 | 20.3 | 18.1
